Patent publication US20210292396A1

Experiments:
Experiment in all cases: cell-based or functional assay
[1] = target: Env of HIV isolate 6535.3 (clade B) (HIV)
[2] = target: Env of HIV isolate C2101.c1 (clade AE) (HIV)
[3] = target: Env of HIV isolate CH070.1 (clade BC) (HIV)
[4] = target: HIV Env of isolate CNE21 (HIV)
[5] = target: Env of HIV isolate ZM233.6 (clade C) (HIV)
[6] = target: Env of HIV isolate T33-7 (clade AG) (HIV)
[7] = target: Env of HIV isolate 0330.v4.c3 (clade A) (HIV)
[8] = target: Env of HIV isolate CAP210.E8 (clade C) (HIV)
[9] = target: Env of HIV isolate CNE30 (clade C in Table 7) (HIV)
[10] = target: Env of HIV isolate 6540.v4.c1 (clade AC) (HIV)
[11] = target: Env of HIV isolate SS1196.01 (clade B) (HIV)
[12] = target: Env of HIV isolate 16936-2.21 (clade C) (HIV)
[13] = target: Env of HIV isolate 6785.v5.c14 (clade C) (HIV)
[14] = target: Env of HIV isolate 3988.25 (clade B) (HIV)
[15] = target: Env of HIV isolate 191821.E6.1 (clade D) (HIV)
[16] = target: HIV Env of isolate TV1.29 (HIV)
[17] = target: HIV Env of isolate 3016.v5.c45 (HIV)
[18] = target: Env of HIV isolate R2184.c4 (clade AE) (HIV)
[19] = target: Env of HIV isolate P1981.C5.3 (clade G) (HIV)
[20] = target: Env of HIV isolate SC422.8 (clade B) (HIV)
[21] = target: Env of HIV isolate CNE3 (clade AE) (HIV)
[22] = target: Env of HIV isolate T280-5 (clade AG) (HIV)
[23] = target: HIV Env of isolate CH119.10 (HIV)
[24] = target: Env of HIV isolate T278-50 (clade AG) (HIV)
[25] = target: Env of HIV isolate MI369.A5 (clade A) (HIV)
[26] = target: Env of HIV isolate CE703010217.B6 (clade C) (HIV)
[27] = target: Env of HIV isolate CNE5 (clade AE) (HIV)
[28] = target: Env of HIV isolate BS208.B1 (clade A) (HIV)
[29] = target: Env of HIV isolate MS208.A1 (clade A) (HIV)
[30] = target: HIV Env of isolate 6405.v4.c34 (HIV)
[31] = target: Env of HIV isolate RHPA.7 (clade B) (HIV)
[32] = target: Env of HIV isolate CNE4 (clade B) (HIV)
[33] = target: HIV Env of isolate 0921.v2.c14 (HIV)
[34] = target: Env of HIV isolate CH119.10 (clade BC) (HIV)
[35] = target: Env of HIV isolate TRO.11 (clade B) (HIV)
[36] = target: Env of HIV isolate TV1.29 (clade C) (HIV)
[37] = target: Env of HIV isolate 6631.v3.c10 (clade C) (HIV)
[38] = target: HIV Env of isolate DU422.01 (HIV)
[39] = target: HIV Env of isolate 426c (HIV)
[40] = target: Env of HIV isolate 3326.v4.c3 (clade CD) (HIV)
[41] = target: Env of HIV isolate 620345.c1 (clade AE) (HIV)
[42] = target: Env of HIV isolate WITO.33 (clade B) (HIV)
[43] = target: HIV Env of isolate CAP45.G3 (HIV)
[44] = target: Env of HIV isolate Bal.01 (clade B) (HIV)
[45] = target: Env of HIV isolate 3873.v1.c24 (clade C) (HIV)
[46] = target: HIV Env of isolate 26191-2.48 (HIV)
[47] = target: HIV Env of isolate CNE31 (HIV)
[48] = target: Env of HIV isolate X1632.S2.B10 (clade G) (HIV)
[49] = target: Env of HIV isolate 231965.c01 (clade D) (HIV)
[50] = target: Env of HIV isolate CNE53 (clade C in Table 7) (HIV)

B1: ePGT121.15 (ePGT121.15.H6 VH and ePGT121.15.L1 VL) (antibody, V domains shown)
VH: QMQLQESGPGLVKPGETLSLTCSVSGASISSSYWSWLRETPGKGLEWIGYTHHSGDTNYAPSLKSRVHLGLHPSKNQVSLSLTSVTAADTAVYYCARTLHGRRIYGVVAFNEFFTYFYWEVWGKGTQVTVSS
VL: SDISVAPGETVRISCGGESIGSRAVQWYQHRAGQAPKLIIYNNQDRPPGIPERFSGSPDIDFGTTATLTITNVEAGDEATYYCHIWDSRRPTNWVFGGGTTLTVL
For B1, the IC50, pseudovirus neutralization [1] was 0.7 ng/mL, the IC50, pseudovirus neutralization [2] was > 50000 ng/mL and the IC50, pseudovirus neutralization [3] was 1 ng/mL. For the same binder, the IC80, pseudovirus neutralization [4] was 4 ng/mL, the IC50, pseudovirus neutralization [5] was 16 ng/mL and the IC50, pseudovirus neutralization [6] was > 50000 ng/mL. The IC50, pseudovirus neutralization [7] was 6 ng/mL, the IC50, pseudovirus neutralization [8] was 52 ng/mL and the IC50, pseudovirus neutralization [9] was 8 ng/mL. The IC50, pseudovirus neutralization [10] was > 50000 ng/mL, the IC50, pseudovirus neutralization [11] was 3 ng/mL and the IC50, pseudovirus neutralization [12] was 3 ng/mL. The IC50, pseudovirus neutralization [13] was 4 ng/mL, the IC50, pseudovirus neutralization [14] was 4 ng/mL and the IC50, pseudovirus neutralization [15] was 249 ng/mL. For the same binder, the IC80, pseudovirus neutralization [16] was 10 ng/mL, the IC80, pseudovirus neutralization [17] was > 50000 ng/mL and the IC50, pseudovirus neutralization [18] was > 50000 ng/mL. The IC50, pseudovirus neutralization [19] was 2 ng/mL, the IC50, pseudovirus neutralization [20] was 11 ng/mL and the IC50, pseudovirus neutralization [21] was > 50000 ng/mL. The IC50, pseudovirus neutralization [22] was 4 ng/mL, the IC80, pseudovirus neutralization [23] was 16 ng/mL and the IC50, pseudovirus neutralization [24] was 4870 ng/mL. For the same binder, the IC50, pseudovirus neutralization [25] was 4 ng/mL, the IC50, pseudovirus neutralization [26] was 4 ng/mL and the IC50, pseudovirus neutralization [27] was > 50000 ng/mL. For the same binder, the IC50, pseudovirus neutralization [28] was > 50000 ng/mL, the IC50, pseudovirus neutralization [29] was > 50000 ng/mL and the IC80, pseudovirus neutralization [30] was 9 ng/mL. It also gave an IC50, pseudovirus neutralization [31] of 3 ng/mL, an IC50, pseudovirus neutralization [32] of 4 ng/mL and an IC80, pseudovirus neutralization [33] of 5710 ng/mL. It also gave an IC50, pseudovirus neutralization [34] of 5 ng/mL, an IC50, pseudovirus neutralization [35] of 3 ng/mL and an IC50, pseudovirus neutralization [36] of 4 ng/mL. For the same binder, the IC50, pseudovirus neutralization [37] was 15 ng/mL, the IC80, pseudovirus neutralization [38] was 22 ng/mL and the IC80, pseudovirus neutralization [39] was 1380 ng/mL. For the same binder, the IC50, pseudovirus neutralization [40] was 362 ng/mL, the IC50, pseudovirus neutralization [41] was > 50000 ng/mL and the IC50, pseudovirus neutralization [42] was 8 ng/mL. It also gave an IC80, pseudovirus neutralization [43] of 24100 ng/mL, an IC50, pseudovirus neutralization [44] of 2 ng/mL and an IC50, pseudovirus neutralization [45] of 4 ng/mL. For the same binder, the IC80, pseudovirus neutralization [46] was 15 ng/mL, the IC80, pseudovirus neutralization [47] was 147 ng/mL and the IC50, pseudovirus neutralization [48] was > 50000 ng/mL. The IC50, pseudovirus neutralization [49] was 12500 ng/mL and the IC50, pseudovirus neutralization [50] was 7 ng/mL.
